The pKd is the Kd on a negative log10 scale, so that one unit is a factor of ten.

Series [1] has as its system NS5A domain I WT (Hepatitis C virus JFH-1 (genotype 2a)). Description: filter binding. To be noted: Binding buffer and temperature not given (as in ref 32); slot blot nitrocellulose/nylon, hyperbolic fit; protein dialyzed in 20 mM Tris-HCl pH 8.2, 150 mM ….
Series [2] addresses NS5A domain I (35-215) P145A. Description: GST pulldown, Western blot quantification (Li-Cor Odyssey Sa). To be noted: parent: est. 7.4; read off a plot. In general terms: Immunoblotting shows a protein as a band on a membrane.
In the next series the target is GST control protein. The series is described as above. Particulars: parent: est. 0.78; read off a plot.
The target in series [3] is NS5A domain I (35-215) P35A. Described as above. Particulars: parent: est. 7.4; read off a plot.
Series [4] deals with NS5A domain I (35-215) V67A. Described as above. To be noted: parent: est. 7.4; read off a plot.

pKd: −log10 of the molar value.

In series [1], HCV 3'UTR RNA had a pKd of 6.61.

In the case of NS5A domain I (35-215), wild type P145A, the values for the response (in series [2]; with GST control protein) were 1.3 and 0.34, respectively.

Take NS5A domain I (35-215), wild type P35A: the response came to 2.5 in series [3] and 0.34 with GST control protein.

For NS5A domain I (35-215), wild type V67A, the response in series [4] was 0.39; with GST control protein, 0.15.

Source of the values: publication PMC5792032.
